The results in this text go back to IntAct's records for PubMed 9847329.

The chains are these.
B1: Protein Rep68 (Adeno-associated virus 2 (isolate Srivastava/1982)), P03132 (parent)
chain: MPGFYEIVIKVPSDLDGHLPGISDSFVNWVAEKEWELPPDSDMDLNLIEQAPLTVAEKLQRDFLTEWRRVSKAPEALFFVQFEKGESYFHMHVLVETTGVKSMVLGRFLSQIREKLIQRIYRGIEPTLPNWFAVTKTRNGAGGGNKVVDECYIPNYLLPKTQPELQWAWTNMEQYLSACLNLTERKRLVAQHLTHVSQTQEQNKENQNPNSDAPVIRSKTSARYMELVGWLVDKGITSEKQWIQEDQASYISFNAASNSRSQIKAALDNAGKIMSLTKTAPDYLVGQQPVEDISSNRIYKILELNGYDPQYAASVFLGWATKKFGKRNTIWLFGPATTGKTNIAEAIAHTVPFYGCVNWTNENFPFNDCVDKMVIWWEEGKMTAKVVESAKAILGGSKVRVDQKCKSSAQIDPTPVIVTSNTNMCAVIDGNSTTFEHQQPLQDRMFKFELTRRLDHDFGKVTKQEVKDFFRWAKDHVVEVEHEFYVKKGGAKKRPAPSDADISEPKRVRESVAQPSTSDAEASINYADRLARGHSL

This assay covers variants of B1. The following applies: with tcp4_human SUB1, P53999.
On to K340H, for which the “effect of a mutation on the interaction” value is listed as “disrupting interaction”.
